According to patent US20220064281A1 (Ablynx, published 2022):

Key:
human membrane TNFα [1] = molecular target: T1, human membrane TNFα (human, UniProt P01375 1-233); experiment: flow cytometry, human membrane TNFα expressing HEK293H cells, viable cells, 1 h at 4 °C
T1 construct: whole, on cells; also called membrane expressed TNFα
Protocol: (§1) Briefly, cells were seeded at a density of 1×10⁴ cells/well and incubated with a dilution series of F027500069 starting from 100 nM up to 0.5 pM, for 1 hour at 4° C. In parallel, cells were fixed with 4% paraformaldehyde and 0.1% Glutaraldehyde in PBS, before seeding (to increase detection of membrane bound TNFα) and incubated with a dilution series of ISVD for 1 hour at 4° C. or for 24 hours at room temperature. Cells were washed 3 times and subsequently incubated with an anti-VHH mAb for 30 min at 4° C., washed again, and incubated for 30 min at 4° C. with a goat anti-mouse PE labelled antibody. Samples were washed and resuspended in FACS Buffer (D-PBS with 10% FBS and 0.05% sodium azide supplemented with 5 nM TOPRO3). Cell suspensions were then analysed on an iQuescreener. EC50 values were calculated using GraphPad Prism.

cyno TNFα [2] = molecular target: T2, cyno TNFα (cynomolgus monkey, UniProt P79337 77-233); experiment: cell-based or functional assay
T2 sequence (P79337 77-233 limits assumed): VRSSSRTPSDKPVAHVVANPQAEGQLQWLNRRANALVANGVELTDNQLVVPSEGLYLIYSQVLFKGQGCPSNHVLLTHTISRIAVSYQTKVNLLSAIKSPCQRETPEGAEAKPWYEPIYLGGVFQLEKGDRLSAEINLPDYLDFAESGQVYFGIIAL

human TNFα [3] = molecular target: T3, human TNFα (human, UniProt P01375 77-233); experiment: cell-based or functional assay
T3 sequence (P01375 77-233 limits assumed): as the sequence (P79337 77-233 limits assumed) above, with V37L, T44R, N72T, L138R counted along it

human RANKL = molecular target: T4, human RANKL (human, UniProt O14788 140-317, limits assumed); experiment: SPR, target immobilized by amine coupling, F027500069 injected
T4 construct: also called huRANKL
T4 sequence (looked up): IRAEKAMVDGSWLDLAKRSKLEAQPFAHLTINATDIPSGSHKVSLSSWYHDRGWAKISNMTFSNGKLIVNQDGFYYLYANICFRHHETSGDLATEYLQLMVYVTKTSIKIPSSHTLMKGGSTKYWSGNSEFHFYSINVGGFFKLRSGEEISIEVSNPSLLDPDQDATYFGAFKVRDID
Protocol: (§2) Absence of binding to TNFα and IL-23 related human cytokines was assessed via SPR. hIL-12 was tested, as it shares the p40 subunit with IL-23. TNF superfamily members human FASL, TNFβ, LIGHT, TL-1A, RANKL were tested as related cytokines for TNFα.
(§3) Next, 1 μM of F027500069 was injected for 2 minutes and allowed to dissociate for 900s at a flow rate of 45 μL/min. As running buffer 1×HBS-EP+ pH7.4 was used. As positive controls, 0.2 μM α-huIL-12 Ab and 0.5 μM α-huFASL Ab, 0.5 μM α-huTNFβ Ab, 0.5 μM α-huLIGHT Ab, 0.5 μM α-huTL-1A Ab and 0.5 μM α-huRANKL VHH were injected. Interaction between F027500069 and the positive controls with the immobilized targets was measured by detection of increases in […] which occurs as a result of mass changes on the chip upon binding.

human IL-12 = molecular target: T5, human IL-12 (human, UniProt P29459 23-219; P29460 23-328); experiment: as above
T5 construct: also called hIL-12
T5 sequence (looked up) 1: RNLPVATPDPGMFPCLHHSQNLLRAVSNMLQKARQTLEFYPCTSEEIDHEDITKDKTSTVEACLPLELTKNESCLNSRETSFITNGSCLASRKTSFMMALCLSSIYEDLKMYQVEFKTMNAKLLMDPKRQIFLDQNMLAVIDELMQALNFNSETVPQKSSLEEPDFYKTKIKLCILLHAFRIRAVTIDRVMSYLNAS
T5 sequence (looked up) 2: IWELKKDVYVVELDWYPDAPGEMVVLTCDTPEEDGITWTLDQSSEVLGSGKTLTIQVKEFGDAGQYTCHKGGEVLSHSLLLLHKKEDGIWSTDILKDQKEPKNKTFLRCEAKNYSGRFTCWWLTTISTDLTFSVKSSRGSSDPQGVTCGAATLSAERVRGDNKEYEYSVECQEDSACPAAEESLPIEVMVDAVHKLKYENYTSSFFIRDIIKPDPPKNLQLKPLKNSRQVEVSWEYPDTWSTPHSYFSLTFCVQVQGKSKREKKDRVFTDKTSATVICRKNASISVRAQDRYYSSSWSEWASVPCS
Protocol: as §2, §3

human FASL = molecular target: T6, human FASL (human, UniProt P48023 134-281, limits assumed); experiment: as above
T6 construct: also called huFASL
T6 sequence (looked up): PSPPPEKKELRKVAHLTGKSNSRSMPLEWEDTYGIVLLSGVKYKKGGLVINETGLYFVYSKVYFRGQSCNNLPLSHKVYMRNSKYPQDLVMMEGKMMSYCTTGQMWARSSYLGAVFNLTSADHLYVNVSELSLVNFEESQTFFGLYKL
Protocol: as §2, §3

human LIGHT = molecular target: T7, human LIGHT (human, UniProt O43557 74-240, limits assumed); experiment: as above
T7 construct: also called huLIGHT
T7 sequence (O43557 74-240 limits assumed): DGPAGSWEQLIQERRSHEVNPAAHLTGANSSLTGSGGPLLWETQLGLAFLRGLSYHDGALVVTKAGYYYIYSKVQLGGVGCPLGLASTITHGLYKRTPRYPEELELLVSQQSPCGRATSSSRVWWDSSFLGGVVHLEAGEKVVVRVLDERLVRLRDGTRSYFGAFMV
Protocol: as §2, §3

human TL-1A = molecular target: T8, human TL-1A (human, UniProt O95150 72-251); experiment: as above
T8 construct: also called huTL-1A
T8 sequence (looked up): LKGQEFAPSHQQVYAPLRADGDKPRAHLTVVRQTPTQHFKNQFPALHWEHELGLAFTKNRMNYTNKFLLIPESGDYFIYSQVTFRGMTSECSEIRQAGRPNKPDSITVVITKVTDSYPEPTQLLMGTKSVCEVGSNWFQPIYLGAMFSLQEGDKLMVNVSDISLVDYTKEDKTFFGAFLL
Protocol: as §2, §3

human TNFβ = molecular target: T9, human TNFβ (human, UniProt P01374 35-205); experiment: as above
T9 construct: also called huTNFβ
T9 sequence (looked up): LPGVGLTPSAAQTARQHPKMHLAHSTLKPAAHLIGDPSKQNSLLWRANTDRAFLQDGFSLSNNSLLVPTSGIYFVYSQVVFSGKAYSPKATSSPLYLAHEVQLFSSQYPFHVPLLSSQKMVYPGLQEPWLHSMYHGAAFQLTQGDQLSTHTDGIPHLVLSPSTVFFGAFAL
Protocol: as §2, §3

human membrane TNFα [4] = molecular target: T1, human membrane TNFα; experiment: flow cytometry, human membrane TNFα expressing HEK293H cells, fixed cells, 1 h at 4 °C
Protocol: as §1

human membrane TNFα [5] = molecular target: T1, human membrane TNFα; experiment: flow cytometry, human membrane TNFα expressing HEK293H cells, fixed cells, 24 h at room temperature
Protocol: as §1

cyno IL-23 [6] = molecular target: cyno IL-23 (cynomolgus monkey); experiment: cell-based or functional assay
cyno TNFα [7] = molecular target: T2, cyno TNFα; experiment: Gyrolab in-solution affinity, 48 h incubation
Source text: (§4) Biotinylated human TNFα/IL-23/serum albumin was captured in the microstructures of a Gyrolab Bioaffy 1000 CD, which contains columns of beads and is used as a molecular probe to capture free F027500069 from the equilibrated solution. The mixture of TNFα/IL-23/serum albumin and F027500069 (containing free TNFα/IL-23/serum albumin, free F027500069 and TNFα/IL-23/serum albumin—F027500069 complexes) was allowed to flow through the beads, and a small percentage of free F027500069 was captured, which is proportional to the free ISVD concentration. A fluorescently labelled anti-VHH antibody was then injected to label any captured F027500069 and after rinsing away excess of fluorescent probe, the change in fluorescence was determined. Fitting of the dilution series was done using Gyrolab Analysis software, where KD⁻ and receptor-controlled curves were analyzed to determine the KD value.

human TNFα [8] = molecular target: T3, human TNFα; experiment: Gyrolab in-solution affinity, 48 h incubation
Source text: as §4

cyno IL-23 [9] = molecular target: T10, cyno IL-23 (cynomolgus monkey); experiment: Gyrolab in-solution affinity, 48 h incubation
T10 construct: also called recombinant IL-23 from cynomolgus monkey
Source text: as §4

cyno TNFα [10] = molecular target: T2, cyno TNFα; experiment: Gyrolab in-solution affinity, 24 h incubation
Source text: as §4

human TNFα [11] = molecular target: T3, human TNFα; experiment: Gyrolab in-solution affinity, 24 h incubation
Source text: as §4

cyno IL-23 [12] = molecular target: T10, cyno IL-23; experiment: Gyrolab in-solution affinity, 24 h incubation
Source text: as §4

human membrane TNFα [13] = molecular target: T1, human membrane TNFα; experiment: flow cytometry, human membrane TNFα expressing HEK293H cells, fixed cells
Protocol: as §1

OX40L = molecular target: T11, OX40L (human, UniProt P23510); experiment: SPR (ProteOn XPR36): 100 nM F027500069 captured on immobilized HSA, then 100 nM hOX40L injected for 2 min, alone or mixed with 100 nM IL-23 or TNFα, followed by 600 s dissociation
T11 construct: soluble recombinant protein; also called hOX40L
T11 sequence (ligand chain, looked up): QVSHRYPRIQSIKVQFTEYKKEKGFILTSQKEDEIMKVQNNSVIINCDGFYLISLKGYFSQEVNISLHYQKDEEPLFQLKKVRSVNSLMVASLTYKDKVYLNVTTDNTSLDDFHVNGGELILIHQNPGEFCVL
Protocol: A ProteOn XPR36 instalment was used to determine whether F027500069 can bind simultaneously to hTNFα and hIL-23. To this end HSA was immobilized on a GLC ProteOn Sensor chip via amine coupling. 100 nM of F027500069 was injected for 2 min at 10 μl/min over the HSA surface in order to capture the ISVD via the ALB23002 building block. Subsequently either 100 nM of hIL-23, hTNFα or hOX40L were injected or mixtures of 100 nM IL-23+100 nM TNFα, 100 nM IL-23+100 nM OX40L or 100 nM TNFα+[…], at a flow rate of 10 μl/min for 2 min followed by a subsequent 600 seconds dissociation step. The HSA surfaces were regenerated with a 2-minute injection of HCl (100 mM) at 45 μl/min.

cyno serum albumin = molecular target: T12, cyno serum albumin (cynomolgus monkey, UniProt A2V9Z4 25-608); experiment: Gyrolab in-solution affinity, 2 h incubation
T12 construct: also called SA (cynomolgus monkey)
T12 sequence (A2V9Z4 25-608 limits assumed): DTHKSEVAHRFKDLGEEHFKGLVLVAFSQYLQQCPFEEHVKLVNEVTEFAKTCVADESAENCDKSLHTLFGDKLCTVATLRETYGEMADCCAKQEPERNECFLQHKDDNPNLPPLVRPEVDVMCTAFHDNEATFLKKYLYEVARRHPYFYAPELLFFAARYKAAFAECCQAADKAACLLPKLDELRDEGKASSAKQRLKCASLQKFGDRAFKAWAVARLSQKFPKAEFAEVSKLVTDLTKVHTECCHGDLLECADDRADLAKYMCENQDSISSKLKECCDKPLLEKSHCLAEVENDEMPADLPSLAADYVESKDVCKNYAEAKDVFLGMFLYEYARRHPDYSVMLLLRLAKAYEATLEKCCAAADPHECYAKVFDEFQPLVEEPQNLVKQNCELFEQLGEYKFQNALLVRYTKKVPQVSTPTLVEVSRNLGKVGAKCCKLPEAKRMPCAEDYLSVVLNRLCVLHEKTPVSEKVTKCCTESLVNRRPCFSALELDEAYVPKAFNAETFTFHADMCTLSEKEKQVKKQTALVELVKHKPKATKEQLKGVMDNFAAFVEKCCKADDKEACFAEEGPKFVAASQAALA
Source text: as §4

human serum albumin = molecular target: T13, human serum albumin (human, UniProt P02768 25-609); experiment: Gyrolab in-solution affinity, 2 h incubation
T13 construct: also called HSA; SA (human)
T13 sequence (P02768 25-609 limits assumed): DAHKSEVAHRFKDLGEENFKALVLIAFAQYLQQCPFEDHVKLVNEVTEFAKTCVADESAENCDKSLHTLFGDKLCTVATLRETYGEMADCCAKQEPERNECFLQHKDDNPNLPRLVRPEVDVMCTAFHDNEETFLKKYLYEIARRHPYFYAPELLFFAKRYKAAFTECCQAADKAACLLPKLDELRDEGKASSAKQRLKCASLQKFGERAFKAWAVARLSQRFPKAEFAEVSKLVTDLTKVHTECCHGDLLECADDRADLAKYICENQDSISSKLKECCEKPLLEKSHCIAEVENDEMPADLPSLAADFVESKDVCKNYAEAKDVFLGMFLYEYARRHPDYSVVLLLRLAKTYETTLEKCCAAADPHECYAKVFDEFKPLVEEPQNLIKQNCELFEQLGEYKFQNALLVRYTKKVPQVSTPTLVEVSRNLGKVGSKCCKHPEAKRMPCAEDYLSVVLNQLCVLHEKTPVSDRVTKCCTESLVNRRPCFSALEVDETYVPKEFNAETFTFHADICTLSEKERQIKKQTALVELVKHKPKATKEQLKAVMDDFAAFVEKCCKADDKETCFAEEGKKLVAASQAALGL
Source text: as §4

T1 sequence (P01375 whole entry): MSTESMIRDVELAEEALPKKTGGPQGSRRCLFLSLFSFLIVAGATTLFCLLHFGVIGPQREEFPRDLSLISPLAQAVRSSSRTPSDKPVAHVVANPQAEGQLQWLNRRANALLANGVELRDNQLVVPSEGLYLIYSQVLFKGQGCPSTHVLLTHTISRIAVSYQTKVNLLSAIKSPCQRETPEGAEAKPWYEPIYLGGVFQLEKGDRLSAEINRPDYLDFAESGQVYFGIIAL

B1: F027500069 (VHH)
chain: DVQLVESGGGVVQPGGSLRLSCTASGFTFSTADMGWFRQAPGKGREFVARISGIDGTTYYDEPVKGRFTISRDNSKNTVYLQMNSLRPEDTALYYCRSPRYADQWSAYDYWGQGTLVTVSSGGGGSGGGSEVQLVESGGGVVQPGGSLRLSCAASGRIFSLPASGNIFNLLTIAWYRQAPGKQRELVATIESGSRTNYADSVKGRFTISRDNSKKTVYLQMNSLRPEDTALYYCQTSGSGSPNFWGQGTLVTVSSGGGGSGGGSEVQLVESGGGVVQPGGSLRLSCAASGFTFRSFGMSWVRQAPGKGPEWVSSISGSGSDTLYADSVKGRFTISRDNSKNTLYLQMNSLRPEDTALYYCTIGGSLSRSSQGTLVTVSSGGGGSGGGSEVQLVESGGGVVQPGGSLRLSCAASGRTLSSYAMGWFRQAPGKEREFVARISQGGTAIYYADSVKGRFTISRDNSKNTVYLQMNSLRPEDTALYYCAKDPSPYYRGSAYLLSGSYDSWGQGTLVKVSSA
notes: produced in Pichia pastoris; also called F02750069; ISVD construct F027500069
In the case of B1, the EC50 (human membrane TNFα [1]) is reported as 0.693 nM, the “NFkB assay IC50 (M); Glo Response HEK293_NFkB-NLucP reporter assay, 70 pM cyno TNFα” value (cyno TNFα [2]) is reported as 1.28e-10 M and the “NFkB assay IC50 (M); Glo Response HEK293_NFkB-NLucP reporter assay, 25 pM human TNFα” value (human TNFα [3]) is reported as 3.88e-11 M. B1: no binding (tested: 1 µM) (human RANKL); no binding (tested: 1 µM) (human IL-12); no binding (tested: 1 µM) (human FASL). B1: no binding (tested: 1 µM) (human LIGHT); no binding (tested: 1 µM) (human TL-1A); no binding (tested: 1 µM) (human TNFβ). For the same binder, the EC50 (human membrane TNFα [4]) was 0.811 nM, the EC50 (human membrane TNFα [5]) was 0.122 nM and the “IL-23 reporter assay IC50 (M); Glo Response HEK293_human IL-23R/IL-12Rb1-Luc2P, 40 pM cyno IL-23” value (cyno IL-23 [6]) was 3.23e-10 M. The “Mouse splenocyte assay IC50 (M); IL-23-induced mIL-22 production, 36 pM cyno IL-23” value (cyno IL-23 [6]) was 3.07e-11 M, the Kd (cyno TNFα [7]) was 0.0186 nM and the Kd (human TNFα [8]) was 0.00339 nM. The Kd (cyno IL-23 [9]) was 0.0512 nM, the Kd (cyno TNFα [10]) was 0.0275 nM and the Kd (human TNFα [11]) was 0.00323 nM. The Kd (cyno IL-23 [12]) was 0.0335 nM, the “fold improvement of the EC50 (24 hours against 1 hour incubation)” value (human membrane TNFα [13]) was 6.6 fold and the binding result (OX40L) was “no binding (tested: 100 nM)”. For the same binder, the Kd (cyno serum albumin) was 10.8 nM and the Kd (human serum albumin) was 5.9 nM.
